Measurements from patent US20240358767A1, “STEM CELL DIFFERENTIATION AND CHEMICAL COMPOUNDS” (VERTEX PHARMACEUTICALS INCORPORATED, priority 2021, published 2024).
Where “and” joins values, the source holds several entries; their conditions need not be identical. Equal values may be shown once. Values belong to the molecule of their own block, whether it stands above or below them.

What was measured:
[1] = test system: human stem cells; test: Version A differentiation, flow cytometry of Nkx6.1 and Isl1 on day 7 of Stage 6 (S6d7); type: cell-based; conditions: for S6d7 Nkx6.1 + /Isl1+: day 7 of Stage 6
Protocol: (§1) An exemplary base differentiation protocol, Version A, according to the present disclosure, was used for differentiating human stem cells into mature β cells capable of releasing insulin in response to glucose challenge in vitro.
(§2) Version A protocol is a 6-stage stepwise protocol. With Version A protocol, stem cells were treated with reagents in a manner similar to the Version A described in Example 1 of U.S. Patent Publication No. US20220090020A1, which is incorporated by reference herein in its entirety. In some experiments, Version A was modified such that 100 ng/mL Activin A at Stage 1 was replaced with a different concentration of Activin A as described below.
(§3) In one experiment, differentiation of the stem cells was initiated in spinner flasks using Version A protocol, and three different concentrations of Activin A (“AA”), 100 ng/mL (100%), 10 ng/mL (10%), and 5 ng/mL (5%), applied throughout the three days of Stage 1 were tested, while the remaining differentiation steps were kept the same. On QC days, e.g., upon completion of Stage 1 (“S1C”), completion of Stage 3 (“S3C”), or completion of Stage 5 (“S5C”), the cells were examined for their morphology and cell constituents. Specifically, 5 mL of cell cluster suspension solution were taken from the spinner flask, with 1 mL suspension aliquoted into a 24 well plate. Pictures of the cell clusters in the 24-well plate were taken under brightfield microscope. The cell clusters in the remaining 4 mL suspension were dispersed with TrypLE Express (Life Technologies; 12,604,013) at 37° C. for 20 min, fixed with 4% PFA for 20 mins at 4° C., blocked for 1 hour in FACS buffer (5% Donkey Serum and 0.05% Triton-100 in PBS) at room temperature, and stained with various antibodies against cell markers. Stained cells were then measured using an Accuri 6 flow cytometer (BD Biosciences) and analyzed using FlowJo software.
(§4) In one experiment, six different conditions for Stage 1 differentiation were tested: 100% Activin A, 10% Activin A, 10% Activin A plus GSK-690693, 10% Activin A plus BYL719, 10% Activin A plus GSK-690693 and BYL719, or 100% Activin A plus GSK-690693 and BYL719. Characterization of cell morphology and cell constituents were conducted similarly as described in EXAMPLE 1. FIGS. 2A-5E and Table 4 summarize the characterizations of the cells obtained under the six differentiation conditions at different stages.
In another experiment, the effects of the aforementioned six different conditions for Stage 1 differentiation on Stage 6 differentiation were tested under two Stage 6 medium regimens: regimen 1 (Table 5) and regimen 2 (Table 6).

[2] = test system: human stem cells; test: Version A differentiation, flow cytometry of Nkx6.1 and Isl1 at completion of Stage 5 (S5C); type: cell-based
Protocol: as §1, §2, §3
(§5) In one experiment, four different conditions for Stage 1 differentiation were tested: 100% Activin A, 10% Activin A, 10% Activin A plus GSK-690693 (“GSK”), or 10% Activin A plus BYL719 (“BYL”). Characterization of cell morphology and cell constituents were conducted similarly as described in EXAMPLE 1. The experiment was repeated for four times. Table 3 summarizes the quantification of flow cytometry analysis results at S1C, S3C, and S5C, and total viable cell yield at S5C for the four runs. In all the four runs, 0.1 μM […] or 0.04 μM BYL719 was applied for 3 days of Stage 1, except that in the last two runs, Run 4 and Run 5, 0.04 μM of BYL719 was applied for only 2 days (days S1d1 and S1d2).
as §4

[3] = test system: human stem cells; test: Version A differentiation, flow cytometry of Pdx1, Cdx2 and Sox2 at completion of Stage 3 (S3C); type: cell-based; conditions: for S3C Pdx1: Runs 3-5
Protocol: as §1, §2, §3, §5, §4

[4] = test system: human stem cells; test: Total viable cell yield at S5C; type: cell-based
Protocol: as §1, §2, §5

[5] = test system: Stem cells; test: 384-well screen of small molecule compounds for Stage 1 differentiation to Sox17-positive definitive endoderm cells (immunostaining, DAPI)
Protocol: In one experiment, more than 2100 small molecule compounds (“test compounds”) from a small molecule chemogenomic library were tested for their effects on Stage 1 differentiation from stem cells to Sox17-positive definitive endoderm cells. […] Each test compound was tested at about 8 different concentrations. The resulting cell population in each well was then examined by immunostaining and image analysis to determine the percentage of cells expressing Sox17 and/or Oct14 (via immunostaining of Sox17 and Oct 14), and total cell count (via DAPI staining). […] Quantification thresholds correspond to staining signal and were defined as low, normal, or high. Low indicates a low threshold was set for dectection of Sox17+ staining (i.e., easy to detect Sox17+) and high would be only highest expressing Sox17+ cells are detected.

[6] = test system: human stem cells; test: Stage 1 differentiation of stem cells (Version A protocol), flow cytometry of Oct4 and Sox17 at completion of Stage 1 (S1C); type: cell-based
Protocol: as §1, §2, §3
In another experiment, a dose-response test was conducted to examine the effects of different concentrations of Activin A at Stage 1 on stem cell differentiation. Five different concentrations of Activin A were tested: 100 ng/mL (100%), 20 ng/mL (20%), 10 ng/mL (10%), 5 ng/mL (5%), and 0 ng/mL (0%).
as §5, §4

[7] = test system: human stem cells; test: Cell cluster morphology under brightfield microscope; type: cell-based
Protocol: as §3

[8] = 10% AA (10 ng/mL Activin A) plus the compound(s) at Stage 1
[9] = Stage 6 Regimen 1, 10% AA plus the compound(s) at Stage 1
[10] = Stage 6 Regimen 2, 10% AA plus the compound(s) at Stage 1
[11] = 10 ng/mL AA plus test compound, about 8 concentrations, dose-responsive manner
[12] = 10% AA (10 ng/mL Activin A) at Stage 1
[13] = 100% AA (100 ng/mL Activin A) at Stage 1
[14] = Stage 6 Regimen 1, 10% AA (10 ng/mL Activin A) at Stage 1
[15] = Stage 6 Regimen 1, 100% AA (100 ng/mL Activin A) at Stage 1
[16] = Stage 6 Regimen 2, 10% AA (10 ng/mL Activin A) at Stage 1
[17] = Stage 6 Regimen 2, 100% AA (100 ng/mL Activin A) at Stage 1
[18] = 5% Activin A (5 ng/mL) throughout Stage 1
[19] = 10% Activin A (10 ng/mL) throughout Stage 1
[20] = 100% Activin A (100 ng/mL) throughout Stage 1
[21] = reduced concentrations of Activin A (10% or 5%) vs 100%

nuclear blebbing in the resulting cell population ([5]; visual inspection): not to induce
Molecule: CCn1c(-c2nonc2N)nc2c(C#CC(C)(C)O)ncc(OC[C@H]3CCCNC3)c21 [GSK-690693]
S6d7 Nkx6.1 + /Isl1+ [1, 8]: 34.8%
Markers on S6d7 Isl1 + /Nkx6.1+ [1, 9]: 34.8
Markers on S6d7 Isl1 + /Nkx6.1− [1, 9]: 8.17
Markers on S6d7 Isl1 + /Nkx6.1+ [1, 10]: 36.3
Markers on S6d7 Isl1 + /Nkx6.1− [1, 10]: 8.17
S5C Nkx6.1+/Isl1+ ([2]; 0.1 μM GSK for 3 days of Stage 1 plus 10% AA (10 ng/mL Activin A), Runs 3-5, listed as GSK): 31.1 and 35.6 and 28.5
S5C Nkx6.1+/Isl1+ [2, 8]: 28.5%
S3C Pdx1 ([3]; 0.1 μM GSK for 3 days of Stage 1 plus 10% AA (10 ng/mL Activin A), listed as GSK): 57.5 and 91.1 and 89.4
S3C Pdx1 + /Cdx2+ [3, 8]: 6.70%
S3C Pdx1 + /Sox2+ [3, 8]: 37.3%
St5C yield ([4]; 0.1 μM GSK for 3 days of Stage 1 plus 10% AA, Runs 4-5, listed as GSK): 3.02e+06 mL⁻¹ and 5.4416e+06 mL⁻¹
signal in Oct 4 channel [5, 11]: decrease
signal in Sox17 channel [5, 11]: increase
Relative to 100 ng/mL AA (percentage of Sox17-positive cells normalized by the percentage with 100 ng/mL AA) ([5]; Stage 1 condition with 10 ng/mL AA and the test compound, 384-well plates): 119%
S1C Sox17+/Oct4− ([6]; 0.1 μM GSK for 3 days of Stage 1 plus 10% AA (10 ng/mL Activin A), Runs 2-5, listed as GSK): 69 and 84.9 and 91.6 and 60
S1C Sox17 + /Oct4+ [6, 8]: 2.86%
S1C Sox17+/Oct4− [6, 8]: 91.6%

B1: Activin A: growth factor from the TGF-β superfamily; exemplary sequences SEQ ID NO: 1-15 in Table 1 (protein, UniProt P08476 311-426, looked up)
Inhibin beta A chain: GLECDGKVNICCKKQFFVSFKDIGWNDWIIAPSGYHANYCEGECPSHIAGTSGSSLSFHSTVINHYRMRGHSPFANLKSCCVPTKLRPMSMLYYDDGQNIIKKDIQNMIVEECGCS
modifications: Inhibin beta A chain
S6d7 Nkx6.1 + /Isl1+ [1, 12]: 35.4%
S6d7 Nkx6.1 + /Isl1+ [1, 13]: 37.3%
Markers on S6d7 Isl1 + /Nkx6.1+ [1, 14]: 35.4
Markers on S6d7 Isl1 + /Nkx6.1− [1, 14]: 5.34
Markers on S6d7 Isl1 + /Nkx6.1+ [1, 15]: 37.3
Markers on S6d7 Isl1 + /Nkx6.1− [1, 15]: 7.38
Markers on S6d7 Isl1 + /Nkx6.1+ [1, 16]: 34.6
Markers on S6d7 Isl1 + /Nkx6.1− [1, 16]: 5.42
Markers on S6d7 Isl1 + /Nkx6.1+ [1, 17]: 37.8
Markers on S6d7 Isl1 + /Nkx6.1− [1, 17]: 7.16
cell cluster morphology at completion of Stage 5 ([7]; 5% Activin A): altered morphology
cell cluster morphology at completion of Stage 3 ([7]; 10% or 5% Activin A at Stage 1 vs 100% Activin A): altered morphology
cell cluster morphology at completion of Stage 1 ([7]; 10% or 5% Activin A vs 100% Activin A, irregular shapes and rough edge): altered morphology
percentage of Nkx6.1-positive cells at S5C ([2]; 5% Activin A): reduced percentage
S5c − Nkx6.1+/Isl1+ [2, 18]: 25.9%
S5c − Nkx6.1+/Isl1− [2, 18]: 25.3%
S5C Nkx6.1+/Isl1+ [2, 12]: 32.9%
S5C Nkx6.1+/Isl1+ ([2]; 10% AA (10 ng/mL Activin A) at Stage 1, Runs 3-5, listed as AA): 25.2 and 38.7 and 32.9
S5c − Nkx6.1+/Isl1+ [2, 19]: 32.9%
S5c − Nkx6.1+/Isl1− [2, 19]: 49.5%
S5c − Nkx6.1+/Isl1− ([2]; 10% Activin A (10 ng/mL) throughout Stage 1, listed as AA): 49.5%
S5C Nkx6.1+/Isl1+ [2, 13]: 32.6%
S5C Nkx6.1+/Isl1+ ([2]; 100% AA (100 ng/mL Activin A) at Stage 1, Runs 3-5, listed as AA): 31.5 and 36.6 and 32.6
S5c − Nkx6.1+/Isl1+ [2, 20]: 32.6%
S5c − Nkx6.1+/Isl1− [2, 20]: 41.1%
S5c − Nkx6.1+/Isl1− ([2]; 100% Activin A (100 ng/mL) throughout Stage 1, listed as AA): 41.1%
S3c − Cdx2+/Pdx1+ [3, 18]: 27.0%
S3c− Sox2+/Pdx1+ [3, 18]: 9.76%
S3c − Cdx2+/Pdx1− ([3]; 5% Activin A (5 ng/mL) throughout Stage 1, first line with this head (r7)): 6.22%
S3c − Cdx2+/Pdx1− ([3]; 5% Activin A (5 ng/mL) throughout Stage 1, second line with this head (r9)): 3.63%
S3C Pdx1 + /Cdx2+ [3, 12]: 32.7%
S3C Pdx1 + /Sox2+ [3, 12]: 3.89%
S3C Pdx1 ([3]; 10% AA (10 ng/mL Activin A) at Stage 1, listed as AA): 56.9 and 93.3 and 75.8
S3c − Cdx2+/Pdx1+ [3, 19]: 32.7%
S3c− Sox2+/Pdx1+ [3, 19]: 3.89%
S3c − Cdx2+/Pdx1− ([3]; 10% Activin A (10 ng/mL) throughout Stage 1, first line with this head (r7)): 1.28%
S3c − Cdx2+/Pdx1− ([3]; 10% Activin A (10 ng/mL) throughout Stage 1, second line with this head (r9)): 1.90%
S3C Pdx1 + /Cdx2+ [3, 13]: 3.21%
S3C Pdx1 + /Sox2+ [3, 13]: 38.8%
S3C Pdx1 ([3]; 100% AA (100 ng/mL Activin A) at Stage 1, listed as AA): 72.7 and 95.3 and 84.61
S3c − Cdx2+/Pdx1+ [3, 20]: 3.21%
S3c− Sox2+/Pdx1+ [3, 20]: 38.8%
S3c − Cdx2+/Pdx1− ([3]; 100% Activin A (100 ng/mL) throughout Stage 1, first line with this head (r7)): 0.061%
S3c − Cdx2+/Pdx1− ([3]; 100% Activin A (100 ng/mL) throughout Stage 1, second line with this head (r9)): 1.29%
cells expressing Cdx2 at S3C [3, 21]: more
cells expressing Sox2 at S3C [3, 21]: fewer
St5C yield ([4]; 10% AA (10 ng/mL Activin A) at Stage 1, Runs 4-5, listed as AA): 2.56e+06 mL⁻¹ and 4.1968e+06 mL⁻¹
S1c − Oct4−/Sox17+ [6, 18]: 76.4%
S1C Sox17 + /Oct4+ [6, 12]: 3.29%
S1C Sox17+/Oct4− [6, 12]: 87.1%
S1C Sox17+/Oct4− ([6]; 10% AA (10 ng/mL Activin A) at Stage 1, Runs 2-5, listed as AA): 61.6 and 80.5 and 87.1 and 73.8
S1c − Oct4−/Sox17+ [6, 19]: 87.1%
S1C Sox17 + /Oct4+ [6, 13]: 3.41%
S1C Sox17+/Oct4− [6, 13]: 79.1%
S1C Sox17+/Oct4− ([6]; 100% AA (100 ng/mL Activin A) at Stage 1, Runs 2-5, listed as AA): 78.2 and 88.2 and 79.1 and 84.5
S1c − Oct4−/Sox17+ [6, 20]: 79.1%
percentage of Oct4-negative, Sox17-positive cells at S1C ([6]; among 100%, 10% and 5% Activin A): not significant difference
percentage of Sox17−/Oct4+ cells at S1C ([6]; dose-response test, 100% Activin A (100 ng/mL) at Stage 1): under 1%
percentage of Sox17−/Oct4+ cells at S1C ([6]; dose-response test, Activin A reduced from 100% to 20%, 10%, or 5%): did not change significantly
percentage of double negative cells (Sox17-negative, Oct4-negative) at S1C ([6]; dose-response test, reduced Activin A (20%, 10%, and 5%) vs 100%): increase
